Test results as given in patent US20030186915A1, “Regulatory polynucleotides and uses thereof” (priority 2002, published 2003).

B1: EcoRV to BglII fragment: about 142 nucleotides, nucleotides 1673 to 1814 of SEQ ID NO: 1, in luciferase reporter construct (nucleic acid, listed as Homo sapiens)
DNA: ATCTGAAAACCACAGCCGCCAGCACGTGGGAGGTGCCGGAGAGCAGGCTTGGGCCTTGCCTCACACGCCCCCTCTCTCTGGGTCACCTGGGAGTGCCAGCAGCAATTTGGAAGTTTGCTGAGCTAGAGGAGAAGTCTTTGGG
modifications: in luciferase reporter construct
B2: Cbfa1: transcription factor; gene recovered from an SAOS cDNA library, overexpressed from a mammalian expression vector (protein)
chain: MASNSLFSTVTPCQQNFFWDPSTSRRFSPPSSSLQPGKMSDVSPVVAAQQQQQQQQQQQQQQQQQQQQQQQEAAAAAAAAAAAAAAAAAVPRLRPPHDNRTMVEIIADHPAELVRTDSPNFLCSVLPSHWRCNKTLPVAFKVVALGEVPDGTVVTVMAGNDENYSAELRNASAVMKNQVARFNDLRFVGRSGRGKSFTLTITVFTNPPQVATYHRAIKVTVDGPREPRRHRQKLDDSKPSLFSDRLSDLGRIPHPSMRVGVPPQNPRPSLNSAPSPFNPQGQSQITDPRQAQSSPPWSYDQSYPSYLSQMTSPSIHSTTPLSSTRGTGLPAITDVPRRISDDDTATSDFCLWPSTLSKKSQAGASELGPFSDPRQFPSISSLTESRFSNPRMHYPATFTYTPPVTSGMSLGMSATTHYHTYLPPPYPGSSQSQSGPFQTSSTPYLYYGTSSGSYQFPMVPGGDRSPSRMLPPCTTTSNGSTLLNPNLPNQNDGVDADGSHSSSPTVLNSSGRMDESVWRPY
B3: MyoD: transcription factor overexpressed from an expression plasmid (150 ng) (protein, UniProt P15172 1-320, looked up)
Myoblast determination …: MELLSPPLRDVDLTAPDGSLCSFATTDDFYDDPCFDSPDLRFFEDLDPRLMHVGALLKPEEHSHFPAAVHPAPGAREDEHVRAPSGHHQAGRCLLWACKACKRKTTNADRRKAATMRERRRLSKVNEAFETLKRCTSSNPNQRLPKVEILRNAIRYIEGLQALLRDQDAAPPGAAAAFYAPGPLPPGRGGEHYSGDSDASSPRSNCSDGMMDYSGPPSGARRRNCYEGAYYNEAPSEPRPGKSAAVSSLDCLSSIVERISTESPAAPALLLADVPSESPPRRQEAAAPSEGESSGDPTQSPDAAPQCPAGANPNPIYQVL

Experiments:
SAOS cells = assay: Luciferase reporter assay of SOST regulatory region constructs, transient transfection; assay type: cell-based, human; details: deletion constructs in pGL2-Basic
SOST regulatory region = assay: Transactivation of SOST reporter constructs by co-transfected expression plasmids in SAOS cells; assay type: cell-based, human; details: factor overexpressed, 48 hrs after transfection
Procedure: To determine whether transfected Cbfa1 could drive further increases in the transcriptional activity of the SOST promoter, the Cbfa1 gene was recovered from an SAOS cDNA library and inserted it into a mammalian expression vector.
To test the effects of the two proteins Cbaf1 and MyoD on transactivitation of the 1.8 kb SOST regulatory region, the following tests were performed. SAOS cells were transfected with 500 ng of either the EcoRV fragment (nucleotides 1673 to 1814 of SEQ ID NO: 1) or 1.8 kb SOST regulatory region (nucleotides 1 to 1841 of SEQ ID NO:1) and the indicated combinations of expression plasmids for MyoD (150 ng) or Cbfa1 (30 ng, 300 ng). pBluescript (Stratagene) was used as needed to bring the DNA total to 1 μg per well, and SEAP (20 ng) was used to normalize for transfection efficiency. Cells were harvested 48 hrs after transfection. Both the SOST-luc and the EcoRV fragment were activated by Cbaf1 and MyoD.

Row | Molecule | increase in luciferase activity over the 1.8 kb SOST regulatory region (SAOS cells) | activity of the 1.8 kb SOST regulatory region reporter (SOST-luc) (SOST regulatory region) | activity of the EcoRV fragment reporter (SOST regulatory region) | activity of the 1.8 kb SOST regulatory region reporter (SOST-luc) (SOST regulatory region; listed as Cbaf1) | activity of the EcoRV fragment reporter (SOST regulatory region; listed as Cbaf1)
1 | B1 | almost three fold |  |  |  | 
2 | B2 |  | increased activity | increased activity | activated | activated
3 | B3 |  | activated | activated |  | 
